Measurements reported in PMC9482650, “Quantitative fragmentomics allow affinity mapping of interactomes” (Nature Communications, 2022).

T1: PTPN13_4, Q12923
T1 sequence (Q12923 1783-1878, limits assumed, looked up): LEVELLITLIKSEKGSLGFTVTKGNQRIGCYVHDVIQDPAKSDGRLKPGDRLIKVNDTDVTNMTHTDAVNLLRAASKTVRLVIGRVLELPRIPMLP

T2: PTPN13_5, Q12923
T2 sequence (Q12923 1877-1975, limits assumed, looked up): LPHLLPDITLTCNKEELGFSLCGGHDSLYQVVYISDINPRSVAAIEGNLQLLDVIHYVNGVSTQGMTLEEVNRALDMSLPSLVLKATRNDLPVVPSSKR

T3: SHROOM3, Q8TF72
T3 sequence (Q8TF72 20-120, limits assumed, looked up): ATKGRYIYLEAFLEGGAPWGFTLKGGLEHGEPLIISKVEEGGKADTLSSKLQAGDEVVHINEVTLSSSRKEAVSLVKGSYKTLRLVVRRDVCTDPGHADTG

T4: PDZD7_2, Q9H5P4
T4 sequence (Q9H5P4 205-303, limits assumed, looked up): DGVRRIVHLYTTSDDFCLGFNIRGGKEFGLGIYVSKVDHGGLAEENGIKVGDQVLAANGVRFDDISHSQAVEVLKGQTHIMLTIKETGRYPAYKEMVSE

T5: PDZD2_4, O15018
T5 sequence (O15018 723-823, limits assumed, looked up): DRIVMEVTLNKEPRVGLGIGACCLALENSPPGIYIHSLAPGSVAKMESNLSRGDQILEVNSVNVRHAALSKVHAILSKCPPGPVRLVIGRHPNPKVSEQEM

T6: GIPC1, O14908
T6 sequence (O14908 128-223, limits assumed, looked up): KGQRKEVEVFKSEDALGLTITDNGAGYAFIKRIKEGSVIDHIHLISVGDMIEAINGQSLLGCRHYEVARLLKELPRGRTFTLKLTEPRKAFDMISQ

T7: NHERF1_2, O14745
T7 sequence (O14745 149-244, limits assumed, looked up): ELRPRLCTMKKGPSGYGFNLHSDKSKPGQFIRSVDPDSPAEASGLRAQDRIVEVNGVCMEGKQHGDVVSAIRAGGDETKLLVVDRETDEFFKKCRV

T8: RGS12, O14924
T8 sequence (O14924 17-108, limits assumed, looked up): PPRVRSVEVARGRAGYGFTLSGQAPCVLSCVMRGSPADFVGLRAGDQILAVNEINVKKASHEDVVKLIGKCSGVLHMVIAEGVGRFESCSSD

T9: DVL1, O14640
T9 sequence (O14640 246-333, limits assumed, looked up): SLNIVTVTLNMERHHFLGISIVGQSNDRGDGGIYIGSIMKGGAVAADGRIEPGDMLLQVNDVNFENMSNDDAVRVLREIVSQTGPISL

T10: NHERF3_2, Q5T2W1
T10 sequence (Q5T2W1 129-225, limits assumed, looked up): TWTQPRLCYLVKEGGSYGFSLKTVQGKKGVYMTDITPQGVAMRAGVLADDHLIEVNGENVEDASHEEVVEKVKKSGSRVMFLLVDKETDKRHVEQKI

T11: SHANK3, Q9BYB0
T11 sequence (Q9BYB0 641-750, limits assumed, looked up): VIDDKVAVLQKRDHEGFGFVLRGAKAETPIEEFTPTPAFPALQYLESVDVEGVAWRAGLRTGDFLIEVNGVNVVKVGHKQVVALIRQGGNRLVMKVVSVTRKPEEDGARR

T12: SIPA1L3, O60292
T12 sequence (O60292 961-1052, limits assumed, looked up): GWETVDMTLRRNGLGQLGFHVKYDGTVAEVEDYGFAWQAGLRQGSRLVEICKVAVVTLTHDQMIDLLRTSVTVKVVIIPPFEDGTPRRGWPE

T13: MPDZ_7, O75970
T13 sequence (O75970 1146-1253, limits assumed, looked up): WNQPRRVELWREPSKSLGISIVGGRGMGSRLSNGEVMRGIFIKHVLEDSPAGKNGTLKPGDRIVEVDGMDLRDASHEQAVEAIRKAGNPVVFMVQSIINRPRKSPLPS

T14: TJP3_2, O95049
T14 sequence (O95049 190-282, limits assumed, looked up): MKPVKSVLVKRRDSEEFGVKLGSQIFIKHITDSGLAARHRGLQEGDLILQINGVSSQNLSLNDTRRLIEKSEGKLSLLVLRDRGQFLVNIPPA

T15: PDZD4, Q76G19
T15 sequence (Q76G19 125-224, limits assumed, looked up): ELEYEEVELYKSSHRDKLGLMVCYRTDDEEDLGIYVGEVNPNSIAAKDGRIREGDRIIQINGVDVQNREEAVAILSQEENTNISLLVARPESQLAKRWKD


What was measured:
Test in all cases: holdup assay
Parameters in all cases: key: below the threshold = too weak to quantify, mostly under pKd 3.1 to 4
Details in all cases: plain residues with an end cap or a label only (N-terminal biotin on a linker: ttds)
[1] = molecular target: GRIP2_2, Q9C0E4
[2] = molecular target: T1, PTPN13_4, Q12923
[3] = molecular target: T2, PTPN13_5, Q12923
[4] = molecular target: T3, SHROOM3, Q8TF72
[5] = molecular target: MAGI3_3, Q5TCQ9
[6] = molecular target: T4, PDZD7_2, Q9H5P4
[7] = molecular target: T5, PDZD2_4, O15018
[8] = molecular target: RGS3, P49796-9
[9] = molecular target: T6, GIPC1, O14908
[10] = molecular target: T7, NHERF1_2, O14745
[11] = molecular target: MAGI3_6, Q5TCQ9
[12] = molecular target: T8, RGS12, O14924
[13] = molecular target: T9, DVL1, O14640
[14] = molecular target: PDZD9, Q8IXQ8
[15] = molecular target: T10, NHERF3_2, Q5T2W1
[16] = molecular target: T11, SHANK3, Q9BYB0
[17] = molecular target: MAGIX, Q9H6Y5
[18] = molecular target: T12, SIPA1L3, O60292
[19] = molecular target: T13, MPDZ_7, O75970
[20] = molecular target: TJP1_1, Q07157
[21] = molecular target: T14, TJP3_2, O95049
[22] = molecular target: T15, PDZD4, Q76G19

MAGI3_6, Q5TCQ9, sequence (Q5TCQ9 1014-1103): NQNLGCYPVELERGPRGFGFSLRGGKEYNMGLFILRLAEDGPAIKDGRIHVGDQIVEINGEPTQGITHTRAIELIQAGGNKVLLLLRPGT
RGS3, P49796-9, sequence (P49796 other isoform, or with tags, fused parts or gaps): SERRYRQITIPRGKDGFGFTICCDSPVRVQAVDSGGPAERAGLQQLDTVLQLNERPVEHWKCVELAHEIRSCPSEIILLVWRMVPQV
GRIP2_2, Q9C0E4, sequence (Q9C0E4 137-245): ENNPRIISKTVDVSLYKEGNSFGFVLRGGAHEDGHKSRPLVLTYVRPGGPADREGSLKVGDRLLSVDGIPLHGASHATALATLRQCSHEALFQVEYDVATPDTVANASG
TJP1_1, Q07157, sequence (Q07157 18-120): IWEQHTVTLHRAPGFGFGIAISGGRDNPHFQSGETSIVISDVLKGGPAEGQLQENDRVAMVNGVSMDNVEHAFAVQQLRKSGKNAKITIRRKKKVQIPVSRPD
MAGIX, Q9H6Y5, sequence (Q9H6Y5 118-211): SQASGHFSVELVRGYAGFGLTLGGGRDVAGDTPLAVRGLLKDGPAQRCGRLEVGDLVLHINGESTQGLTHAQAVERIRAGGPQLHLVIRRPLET
PDZD9, Q8IXQ8, sequence (Q8IXQ8 23-120): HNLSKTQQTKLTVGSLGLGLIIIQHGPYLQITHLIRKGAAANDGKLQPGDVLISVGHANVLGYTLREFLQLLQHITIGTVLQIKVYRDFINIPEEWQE
MAGI3_3, Q5TCQ9, sequence (Q5TCQ9 572-655): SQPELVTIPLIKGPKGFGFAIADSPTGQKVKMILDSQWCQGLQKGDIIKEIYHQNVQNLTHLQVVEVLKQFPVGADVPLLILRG

Binder | pKd [2] | pKd [3] | pKd [4] | pKd [5] | pKd [6] | pKd [7] | pKd [8] | pKd [9] | pKd [10] | pKd [11] | pKd [12] | pKd [13] | pKd [14] | pKd [15] | pKd [16] | pKd [17] | pKd [18] | pKd [19] | pKd [20] | pKd [21] | further results
SVWLRKETRV [CYSLTR2, Q9NS75] | below the threshold | below the threshold | below the threshold | below the threshold | below the threshold | 4.48 | below the threshold | below the threshold | below the threshold | below the threshold | below the threshold | 4.32 | below the threshold | below the threshold | below the threshold | below the threshold | below the threshold | 4.33 | 4.78 | below the threshold | pKd [1]: below the threshold; pKd [22]: below the threshold
RSLEEEESQL [GRASP, Q7Z6J2] | below the threshold | below the threshold | below the threshold | below the threshold | below the threshold | below the threshold | below the threshold | 4.1 | below the threshold | 4.14 | below the threshold | below the threshold | below the threshold | below the threshold | 5.24 | below the threshold | below the threshold | below the threshold | below the threshold | below the threshold | pKd [1]: below the threshold; pKd [22]: below the threshold
SRPQRTQTQV [HPV67-E6, A4U7F2] | below the threshold | below the threshold | below the threshold | below the threshold | below the threshold | below the threshold | below the threshold | below the threshold | below the threshold | below the threshold | below the threshold | below the threshold | below the threshold | below the threshold | below the threshold | below the threshold | below the threshold | below the threshold | below the threshold | below the threshold | pKd [22]: below the threshold
SSRTRRETQL [HPV16-E6, P03126] | below the threshold | below the threshold | below the threshold | below the threshold | below the threshold | below the threshold | below the threshold | 4.13 | 3.89 | below the threshold | 4.37 | below the threshold | 4.06 | below the threshold | below the threshold | below the threshold | below the threshold | 4.22 | 4.22 | below the threshold | pKd [1]: below the threshold; pKd [22]: below the threshold
PKTPPTDTSV [KIR3DL3, Q8N743] | below the threshold | below the threshold | below the threshold | below the threshold | below the threshold | below the threshold | below the threshold | below the threshold | below the threshold | below the threshold | below the threshold | below the threshold | below the threshold | below the threshold | below the threshold | below the threshold | below the threshold | below the threshold | below the threshold | below the threshold | pKd [1]: below the threshold; pKd [22]: 4.14
QSARYRDTEL [TJP2, Q9UDY2] | below the threshold | below the threshold | below the threshold | below the threshold | below the threshold | below the threshold | below the threshold | below the threshold | below the threshold | 4.72 | below the threshold | below the threshold | below the threshold | below the threshold | below the threshold | below the threshold | below the threshold | below the threshold | below the threshold | below the threshold | pKd [1]: below the threshold; pKd [22]: below the threshold
